# Test results taken from patent US20230265187A1 (published 2023).
# T1: his-tagged murine TIGIT (Acro Biosystems #TIT-M52E6) (murine, UniProt P86176 29-148, limits assumed)
# T1 construct: Bought protein; also called mouse his-tagged TIGIT; not shown: his tag
# T1 sequence (looked up): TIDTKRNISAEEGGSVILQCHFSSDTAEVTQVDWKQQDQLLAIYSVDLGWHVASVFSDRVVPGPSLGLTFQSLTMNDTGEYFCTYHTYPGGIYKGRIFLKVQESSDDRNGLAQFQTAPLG
# T2: human TIGIT on Jurkat cells (TIGIT/NFAT reporter Jurkat cells, BPS Bioscience #60538); Promega TIGIT Effector … (human, UniProt Q495A1 22-244)
# T2 construct: whole, on cells; Same protein on two bought Jurkat lines (flow cytometry: BPS; bioassay: Promega); also called hu TIGIT cells; cells expressing human TIGIT
# T2 sequence (looked up): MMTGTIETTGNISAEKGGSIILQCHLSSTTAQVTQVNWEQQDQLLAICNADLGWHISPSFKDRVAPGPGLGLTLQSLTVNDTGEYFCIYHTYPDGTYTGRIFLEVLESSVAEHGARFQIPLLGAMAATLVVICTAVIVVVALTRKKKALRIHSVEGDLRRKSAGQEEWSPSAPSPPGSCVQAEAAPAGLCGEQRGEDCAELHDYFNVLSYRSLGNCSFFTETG
# T3: his-tagged human TIGIT (Acro Biosystems #TIT-H52H3) (human, UniProt Q495A1 22-141)
# T3 construct: Bought protein; also called His-tagged-TIGIT (human); not shown: his tag
# T3 sequence (looked up): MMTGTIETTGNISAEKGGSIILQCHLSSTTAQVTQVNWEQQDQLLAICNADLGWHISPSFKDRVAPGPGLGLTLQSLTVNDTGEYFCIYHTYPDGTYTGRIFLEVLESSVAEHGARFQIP
# Key:
# [1] = target: T4, His-tagged cynomolgus monkey TIGIT (Acro Biosystems #TIT-05223) (cynomolgus monkey, UniProt A0A7N9I9V4 89-209); test: SPR (Carterra LSA), scFv-Fc captured, His-TIGIT analyte; repeat
# T4 construct: Bought protein; also called cyno TIGIT; cynomolgus TIGIT; not shown: His tag
# T4 sequence (A0A7N9I9V4 entry or part of it): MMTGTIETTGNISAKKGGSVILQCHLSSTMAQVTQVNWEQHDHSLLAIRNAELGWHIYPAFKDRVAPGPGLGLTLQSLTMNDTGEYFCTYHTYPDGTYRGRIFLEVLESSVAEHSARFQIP
# Protocol: (§1) Binding affinities of anti-TIGIT antibodies to human, cyno, and murine TIGIT were measured by Surface Plasmon Resonance (SPR) on a Carterra LSA instrument. Goat anti-human Fc antibody was amine coupled to a HC30M chip. ScFv-Fc supernatants were diluted 30-fold with HBSTE and were captured by the anti-human Fc coupled HC30M chip. A 1:2 dilution series of his-tagged human TIGIT, starting at 400 nM, was injected onto the chip for binding. A dilution series was also carried out for cyno TIGIT and murine TIGIT. Data were analyzed using the Carterra™ Kinetics software.
# [2] = target: T1, his-tagged murine TIGIT (Acro …); test: as above
# Protocol: as §1
# [3] = target: T2, human TIGIT on Jurkat cells (TIGIT/NFAT …); test: flow cytometry, TIGIT/NFAT Jurkat cells, 10 ug/ml
# [4] = target: T3, his-tagged human TIGIT (Acro Biosystems …); test: ELISA, coated His-TIGIT, 1 ug/ml
# [5] = target: T4, His-tagged cynomolgus monkey TIGIT …; test: ELISA, coated His-TIGIT, 1 ug/ml
# [6] = target: T1, his-tagged murine TIGIT (Acro …); test: ELISA, coated His-TIGIT, 1 ug/ml
# [7] = target: T3, his-tagged human TIGIT (Acro Biosystems …); test: SPR (Carterra LSA), scFv-Fc captured, His-TIGIT analyte
# In short: (§2)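 Affinity from His-TIGIT analyte injected in 1:2 serial dilution over antibody captured as scFv-Fc via amine-coupled goat anti-human Fc on an HC30M surface. Supernatants diluted 30-fold in HBSTE; kinetic fitting.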
# [8] = target: T4, His-tagged cynomolgus monkey TIGIT …; test: as above
# In short: as §2
# [9] = target: T1, his-tagged murine TIGIT (Acro …); test: as above
# In short: as §2
# [10] = target: T2, human TIGIT on Jurkat cells (TIGIT/NFAT …); test: cell-based or functional assay
Binder,Kd [1],Kd [2],MFI [3],Elisa OD450 [4],Elisa OD450 [5],Elisa OD450 [6],Kd [7],Kd [8],Kd [9],max. signal (% of 22G2) [10]
"43586p1.2.B2 (scFv, V domains shown) VH: EMQLLESGGGLVQPGGSLRLSCAASGFTFDDYVMSWVRQAPGKGLEWVSLINWNGDKTYYADSVKGRFTISRDNSKNTLYLQMNSLRAEDTAIYYCAKHWIVFQYGMDVWGQGTTVTVSS VL: QSVLTQPPSASGTPGQRVTISCSGSISNIETKYVSWYQQLPGTAPKLLIYNSDQRPSGVPDRFSGSKSGTSASLAISGLQSEDEADYYCVSWDASLKSWVFGGGTKLTVL",1.8 nM,1.3 nM,9270 MFI,2.06 OD450,1.57 OD450,2.01 OD450,0.245 nM,14.3 nM,3.28 nM,121 % of 22G2
"43586p2.G10 (scFv, V domains shown) VH: EVQLLESGGGLVQPGGSLRLSCAASGFTFDDYVMSWVRQAPGKGLEWVSLINWSGGTTYYADSVKGRFTISRDNSKNTLYLQMNSLRAEDTAVYYCAKHWIVYQYGMDVWGQGTTVTVSS VL: QSVLTQPSSASGTPGQRVTISCSGTISNIETKYVSWYKYVSWYQQLPGTAPKLLIYNNVQRPSGVPDRFSGSQSGTSASLAISGLQSEDEAHYYCASWEGGLNSWVFGGGTKLTVL",3.7 nM,0.919 nM,9400 MFI,2.21 OD450,1.83 OD450,2.23 OD450,0.267 nM,,3.05 nM,99 % of 22G2
"43586p1.2.E2 (scFv, V domains shown) VH: EVQLLESGGGLVQPGGSLRLSCAASGFTFTSYLMSWVRQAPGKGLEWVSTITWDGDRTYYADSVKGRFTISRDNSKNTLYLQMNSLRVGDTAVYYCAKHWTVFQYGMDVWGQGTTVTVSS VL: QSVLTQPASASGTPGQRVTISCSGTISNIETKYVSWYQQLPGTAPKLLIYGNHQRPSGVPDRFSGSKSGTSASLAISGLQSEDEADYYCASWENDLKSWVFGGGTKLTVL",4.8 nM,67 nM,9320 MFI,2.02 OD450,1.73 OD450,1.78 OD450,0.0486 nM,9.5 nM,122 nM,125 % of 22G2
"43586p1.2.C11 (scFv, V domains shown) VH: EVQLLESGGGLVQPGGSLRLSCAASGFTFDDYVMSWVRQAPGKGLEWVSLINWNGDKTYCADSVKGRFTISRDNSKNTLYLQMNSLRAEDTAIYYCAKHWIVFQYGMDVWGQGTTVTVSS VL: QSVLTQPPSASGTPGQRVTISCSGSISNIETKYVSWYQQLPGTAPKLLIYNSDQRPSGVPDRFSGSKSGTSASLAISGLQSEDEADYYCVSWDASLKSWVFGGGTKLTVL",1.9 nM,1.8 nM,9550 MFI,2.03 OD450,1.81 OD450,2.01 OD450,0.0517 nM,2.56 nM,1.45 nM,106 % of 22G2
"43586p1.2.E1 (scFv, V domains shown) VH: EVQLLESGGGLVQPGGSLRLSCAASGFTFSDYLMTWVRQAPGKELEWVSTITWDGDRTYYADSVKGRFTISRDNSKNTLYLQMNSLRAEDTAVYYCAKHWTVFQYGMDVWGQGTTVTVSS VL: QSVLTQPPSASGTPGQRVTISCSGTISNIEIKYVSWYQQLPGTAPKLLIYGNHQRPSGVPDRFSGSKSGTSASLAISGLQSEDEADYYCSSWENDLKSWVFGGGTKLTVL",3.2 nM,22 nM,9480 MFI,2.25 OD450,1.85 OD450,2.11 OD450,0.029 nM,6.27 nM,7.34 nM,111 % of 22G2
"43586p1.2.E4 (scFv, V domains shown) VH: EVQLLESGGGLVQPGGSLRLSCAASGFTFSDYLMTWVRQAPGKGLEWVSTITWDGDRTYYADSVKGRFTISRDNSKNTLYLQMNSLRAEDTAVYYCAKHWTVFQYGMDVWGQGTTVTVSS VL: QSVLTQPPSASGTPGQRVTISCSGTISNIEIKYVSWYQQLPGTAPKLLIYGNHQRPSGVPDRFSGSKSGTSASLAISGLQSEDEADYYCSSWENDLKSWVFGGGTKLTVL",2.8 nM,18 nM,9550 MFI,2.09 OD450,1.86 OD450,2.03 OD450,0.117 nM,25.4 nM,66.5 nM,113 % of 22G2

# The next lines start with the values.
Kd [1],Kd [2],MFI [3],Elisa OD450 [4],Elisa OD450 [5],Elisa OD450 [6],Kd [7],Kd [8],Kd [9],max. signal (% of 22G2) [10],Binder
0.181 nM,0.595 nM,10000 MFI,2 OD450,1.85 OD450,1.7 OD450,0.128 nM,,,109 % of 22G2,"43645p1.H10 (scFv, V domains shown) VH: EVQLLESGGGLVQAGGSLRLSCAASGFTFDDYVMTWVRQAPGKGLEWVSLINWSGDRTYYADSVKGRFTISRDNSKNTLYLQMNSLRAEDTAVYYCVKHNLNYYYGMDVWGQGTTVTVSS VL: QSVLTQPPSVSGTPGQRVTISCSGTISNVGNKYVSWYQQVPGTAPKLLIDYNQRPSGVPDRFSGSQSGTSASLTISGLQSEDEADYYCATWDDSLKGWVFGGGTKLTVL"
0.93 nM,42 nM,8950 MFI,2.42 OD450,1.61 OD450,1.85 OD450,0.0464 nM,,,111 % of 22G2,"43645p1.B2 (scFv, V domains shown) VH: EVQLLESGGGLVQPGGSLRLSCATSGFTFSSYWMSWVRQAPGKGLEWVSGIHISDSTYYADSVKGRFTISRDNSKNTLYLQMNSLRAEDTAVYYCAKGHTVLQYGMDVWGQGTTVTVSS VL: QSGLTQPPSASGTPGQRVTISCSGDISNTRNNYVSWYQQLPGTAPKLLIYGNHQRPSGVPDRFSGSKSATSASLAISGLQSEDEADYHCGTWDNTLNAWVFGGGTKLTVL"
0.32 nM,19 nM,9350 MFI,2.13 OD450,1.74 OD450,1.9 OD450,0.0171 nM,,,115 % of 22G2,"43645p1.D3 (scFv, V domains shown) VH: EVQLLESGGGLVQPGGSLRLSCAASGFTFSSYWMSWVRQAPGKGLEWVSGIHISDSTYYADSVKGRFTISRDNSKNTLYLQMNSLRAEDTAVYYCAKGHTVLQYGMDVWGQGTTVTVSS VL: QSGLTQPPSASGTPGQRVTISCSGDISNTRNNYVSWYQQLPGTAPKLLIYGNHQRPSGVPDRFSGSKSATSASLAISGLQSEDEADYYCGTWDNTLNAWVFGGGTKLTVL"
2.9 nM,14 nM,9250 MFI,2.02 OD450,1.51 OD450,0.047 OD450,0.343 nM,17.6 nM,,111 % of 22G2,"43645p1.D1 (scFv, V domains shown) VH: EVQLLESGGDLVQSGGSLRLSCAASGFSFWGYAMTWVRQAPGKGLEWVSTIAGNSYTYYADSVKGRFTISRDNSKNMVYLQMNGLRAEDTAVYYCAKDRSFYNYYDIDVWGQGTTVTVSS VL: not shown"
